Experimental data: article PMC12557481

Legend:
p53_WT [1] = biological target: T1, p53_WT (human, UniProt P04637 1-393); assay: EMSA
p53_WT [2] = biological target: T1, p53_WT; assay: AUC
p53_WT [3] = biological target: T1, p53_WT; assay: AUC; remark: listed apart in the source

T1 sequence (P04637 whole entry): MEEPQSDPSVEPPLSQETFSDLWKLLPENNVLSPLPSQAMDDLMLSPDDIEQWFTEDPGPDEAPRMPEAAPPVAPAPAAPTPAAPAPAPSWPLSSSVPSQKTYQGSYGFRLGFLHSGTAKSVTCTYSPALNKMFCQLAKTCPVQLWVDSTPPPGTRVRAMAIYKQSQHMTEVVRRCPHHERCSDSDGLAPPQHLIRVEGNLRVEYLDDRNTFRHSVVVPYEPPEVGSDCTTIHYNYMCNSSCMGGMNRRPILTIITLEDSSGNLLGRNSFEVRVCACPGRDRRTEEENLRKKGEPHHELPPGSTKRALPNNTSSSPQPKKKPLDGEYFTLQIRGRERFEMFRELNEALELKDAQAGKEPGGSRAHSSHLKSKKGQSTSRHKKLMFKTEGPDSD

B1: DNAp21 (EMSA) (dsDNA)
DNA 1: GAACATGTCCCAACATGTTGGGCGTCGGCTGTCGGAGGAACATGTCCCAACATGTTG
DNA 2: CAACATGTTGGGACATGTTCCTCCGACAGCCGACGCCCAACATGTTGGGACATGTTC
B1: binds (p53_WT [1]).

B2: DNAp21 (AUC) (dsDNA)
DNA 1: CTCAACATGTTGGGACATGTTCCT
DNA 2: AGGAACATGTCCCAACATGTTGAG
B2: binds (p53_WT [2]).

B3: DNAmdm2 (EMSA) (dsDNA)
DNA 1: GGTCAAGTTGGGACACGTCCGGCGTCGGCTGTCGGAGGAGCTAAGTCCTGACATGTCT
DNA 2: AGACATGTCAGGACTTAGCTCCTCCGACAGCCGACGCCGGACGTGTCCCAACTTGACC
B3: binds (p53_WT [1]).

B4: DNAmdm2 (AUC) (dsDNA)
DNA 1: GGTCAAGTTGGGACACGTCCGGCGTCGGCTGTCGGAGGAGCTAAGTCCTGACATGTCT
DNA 2: AGACATGTCAGGACTTAGCTCCTCCGACAGCCGACGCCGGACGTGTCCCAACTTGACC
B4: binds (p53_WT [3]).
